Measurements taken from US7090834B1, “Vascular endothelial cell growth factor variants and uses thereof” (Genentech, Inc., priority 1999, dated 2006).
Where two headings read alike, the source gives them in different places.

B1: LK-VRB-8s* (ligand)
chain: APMAEGGGQNHHEVVKFMDVLQRSYCHPIETLVDIFQEYPDEIEYIFKPSCVPLMRCGGCCNSEMRECVPTEESNITMQIMRIKPHQGQHIGEMSFLQHNKCECRPKKD
B2: native VEGF (8-109) (ligand, human, UniProt P15692 214-315, looked up)
chain: GQNHHEVVKFMDVYQRSYCHPIETLVDIFQEYPDEIEYIFKPSCVPLMRCGGCCNDEGLECVPTEESNITMQIMRIKPHQGQHIGEMSFLQHNKCECRPKKD
notes: Homodimer
B3: LK-VRB-3s (ligand, human, UniProt P15692-4 27-135, looked up)
chain: APMAEGGGQNHHEVVKIEDVFKRSSCHPIETLVDIFQEYPDEIEYIFKPSCVPLMRCGGCCNDEGLECVPTEESNITMQIMRIKPHQGQHIGEMSFLQHNKCECRPKKD
B4: LK-VRB-7s* (ligand, human, UniProt P15692-4 27-135, looked up)
chain: APMAEGGGQNHHEVVKFEDVYQRSYCHPIETLVDIFQEYPDEIEYIFKPSCVPLMRCGGCCNSEMRECVPTEESNITMQIMRIKPHQGQHIGEMSFLQHNKCECRPKKD
B5: LK-VRB-9s (ligand, human, UniProt P15692-4 27-135, looked up)
chain: APMAEGGGQNHHEVVKFMDVYRRSYCHPIETLVDIFQEYPDEIEYIFKPSCVPLMRCGGCCNSEMRECVPTEESNITMQIMRIKPHQGQHIGEMSFLQHNKCECRPKKD

Experiments:
[1] = target: Flt-1 receptor; test: RIA assay, binding to FLT-1 receptor
Experimental: Various assays were conducted to examine the properties and biological activities of the I43A/I46A/Q79A/I83A Flt-sel variant. For example, quantitative binding measurements were carried out using a soluble radio-immuno receptor-binding assay (RIA), as described in Example 6 above.
Target sequence in this assay (P17948 27-331 limits assumed): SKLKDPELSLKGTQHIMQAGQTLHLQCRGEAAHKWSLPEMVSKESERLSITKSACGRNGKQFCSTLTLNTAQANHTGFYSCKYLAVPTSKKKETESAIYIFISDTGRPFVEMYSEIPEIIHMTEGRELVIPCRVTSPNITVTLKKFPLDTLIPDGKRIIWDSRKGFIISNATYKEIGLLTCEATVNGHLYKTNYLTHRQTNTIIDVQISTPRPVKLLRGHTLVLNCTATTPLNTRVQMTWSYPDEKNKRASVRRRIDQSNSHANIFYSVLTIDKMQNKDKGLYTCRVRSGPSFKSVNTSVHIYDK

[2] = system: PLC-gamma in HUVEC cells; test: PLC-gamma tyrosine phosphorylation after immunoprecipitation; assay type: cell-based, human; settings: 20 ng/ml, 5 minutes, FIG. 13A
Experimental: In order to determine which VEGF receptor(s) are involved in PLC-gamma activation in primary endothelial cells, HUVEC cells were treated with native VEGF or VEGF receptor-selective variants and PLC-gamma phosphorylation was assessed after immunoprecipitation.
Passage 4–7 HUVEC cells (Cell Systems, Kirkland, Wash.) were grown in Cell System's complete medium (AZ0-500) with 10% fetal calf serum and growth factors on gelatin-coated dishes and made quiescent by 14 hour starvation in 0.2% serum. […] The cells were then lysed in 0.5–1 ml RIPA buffer containing 0.1 mM sodium orthovanadate, 5 mM para-nitrophenylphosphate, 10 mM sodium fluoride, 0.5 micromolar okadaic acid and a protease inhibitor cocktail (Roche MB 1836145). PLC-gamma was then immunoprecipitated from whole cell lysates using monoclonal antibodies (Upstate Biotechnology) and analyzed for tyrosine phosphorylation (FIG. 13A) or lysates were immunoprecipitated with monoclonal antibodies against p85 PI 3′-kinase (purchased from Transduction Labs (P13020) and Neomarkers (MS424-P)) and tested for phosphotyrosine using phosphotyrosine antibodies PY20 or E120H (Transduction Labs) (FIG. 13B). Immunoprecipitation was conducted as follows. Protein A/G beads (Pierce) were blocked for nonspecific protein binding in 50 mM HEPES pH 7.2, 0.1% TX-100, 150 mM NaCl and 1 mg/ml ovalbumin for 30 minutes. Antibodies were precoupled in the same buffer for 1 hour at 4° C. with head over end rotation and beads were washed 3 times in lysis buffer. Beads were added to the lysates and rotated overnight. Beads were washed sequentially in 50 mM Tris pH 7.6, 150 mM NaCl, 1% TX-100, 1 mM CaCl2; 50 mM Tris pH 7.6, 500 mM NaCl, 0.1% TX-100, 1 mM CaCl2 and 50 mM Tris pH 7.6, 150 mM NaCl, 0.05% TX-100, 1 mM CaCl2. Beads were then resuspended in 2× sample buffer and boiled. Supernatants were applied directly to 4–12% Tris-Glycine gradient gels (Novex).

[3] = system: HUVEC cells; test: HUVEC migration, modified Boyden chamber assay; assay type: cell-based, human; settings: highest concentration of inhibitor, migration in response to native VEGF, 4 hours, FIG. 14B
Experimental: One of the central aspects of VEGF action on endothelial cells is its ability to act as a chemoattractant and stimulate the migration of endothelial cells. HUVEC cell migration was analyzed in a modified Boyden chamber assay as follows.
Falcon 8.0 micron filter inserts (Falcon 3097) were coated with type 1 collagen (VITROGEN, COHESION). HUVEC (obtained from Cell Systems, <passage 8) were grown in Cell Systems complete media (4ZO-500) with 10% FCS. Cells were trypsinized and transferred to EBM (Endothelial basal media, Clonetics) with 0.1% BSA for the assay. Cells were plated at 5×10^4 per upper chamber. […] The assay was routinely an 18 hour assay at 37° C. For the LY294002 inhibitor experiments, cells were allowed to adhere for 30 minutes prior to addition of the inhibitor. 20 minutes after inhibitor addition, VEGF was added to the bottom well and the assay was allowed to proceed for only 4 hours to avoid the occurrence of apoptosis associated with the treatment of these primary cells with LY294002 (purchased from Biomol).
Cells were removed from the upper side of the membrane by scraping with a polyurethane swab and then the remaining cells on the bottom side of the membrane were fixed with methanol. Cells were stained with Yo-Pro Iodide nuclear stain (Molecular Probes) and counted under low power fluorescence using an Image-Pro cell recognition program.

[4] = target: KDR receptor on HUVEC cells (human, UniProt P35968 20-1356); test: cell-based or functional assay
[5] = target: T1, KDR (1-3) (UniProt P35968 20-327, limits assumed); test: competition ELISA vs biotinylated native VEGF (8-109) for KDR (1-3)
T1 construct: domain: domains 1 to 3; Genentech reagent; also called KDR (1-3) monomer; domains 1 to 3 of KDR
Experimental: (§1) Receptor binding assays were performed in 96-well immunoplates (Maxisorp, Nunc-Immunoplate, Nalge Nunc International, Rochester, N.Y.). Each well was coated with 100 μl of a solution containing 8 μg/ml of a monoclonal antibody to KDR known as MAKD5 (Genentech, South San Francisco, Calif.) in 50 mM carbonate buffer at pH 9.6 and incubated at 4° C. overnight. The supernatant was discarded, the wells were washed three times in washing buffer (0.05% Tween 20 in PBS), and the plate was blocked (150 μl per well) with block buffer (0.5% BSA, 0.01% thimerosal in PBS) at room temperature for one hour. The supernatant was discarded, and the wells were washed.
(§2) Aliquots of this mixture (100 μl) were added to the precoated microtiter wells and the plate was incubated for 1 hour at room temperature. […] The wells were then incubated with 3, 3', 5,5'-tetramethyl benzidine (0.2 gram/liter; Kirkegaard & Perry Laboratories, Gaithersburg, Md.) for about 10 minutes at room temperature. Absorbance was read at 450 nm on a Vmax plate reader (Molecular Devices, Menlo Park, Calif.).
(§3) Titration curves were fit with a four-parameter nonlinear regression curve-fitting program (KaleidaGraph, Synergy Software, Reading, Pa.).

[6] = target: T2, Flt-IgG (UniProt P17948 27-758, limits assumed); test: competition ELISA vs biotinylated native VEGF for Flt-IgG
T2 construct: also called chimeric Flt-human Fc molecule; not shown: human IgG Fc
Experimental: (§4) Receptor binding assays were performed in 96-well immunoplates (Maxisorp, Nunc-Immunoplate, Nalge Nunc International, Rochester, N.Y.). Each well was coated with 100 μl of a solution containing 2 μg/ml of rabbit F(ab')2 to human IgG Fc (Jackson ImmunoResearch, West Grove, Pa.) in 50 mM carbonate buffer at pH 9.6 and incubated at 4° C. overnight. The supernatant was then discarded, the wells were washed three times in washing buffer (0.05% Tween 20 in PBS), and the plate was blocked (150 μl per well) with block buffer (0.5% BSA, 0.01% thimerosal in PBS) at room temperature for one hour. The supernatant was discarded, and the wells were washed.
(§5) The wells were filled with 100 μl of a solution containing Flt-IgG (a chimeric Flt-human Fc molecule) at 50 ng/ml in assay buffer (0.5% BSA, 0.05% Tween 20 in PBS). The wells were incubated at room temperature for 1 hour and then washed three times in wash buffer (0.05% Tween 20 in PBS).
as §2, with “the” for “this”, “2 hours” for “1 hour”, “g/liter,” for “gram/liter;”

[7] = target: Flt-1 receptor; test: Flt-1 receptor binding ELISA (inhibition of biotinylated native VEGF binding to Flt-IgG); settings: for Relative Binding Affinity, FLT-1 Receptor: concentration at midpoint absorbance: first figure of the cell, Flt-IgG; for Relative Binding Affinity, FLT-1 Receptor: ratio to native VEGF (8–109): second figure of the cell, fold less binding than native VEGF
Experimental: as §4, with “F(ab′)2” for “F(ab')2”
as §5
as §2, with “the” for “this”, “2 hours” for “1 hour”, “3′, 5,5′-tetramethyl” for “3', 5,5'-tetramethyl”, “g/liter,” for “gram/liter;”
as §3
Target sequence in this assay (P17948 27-327 limits assumed): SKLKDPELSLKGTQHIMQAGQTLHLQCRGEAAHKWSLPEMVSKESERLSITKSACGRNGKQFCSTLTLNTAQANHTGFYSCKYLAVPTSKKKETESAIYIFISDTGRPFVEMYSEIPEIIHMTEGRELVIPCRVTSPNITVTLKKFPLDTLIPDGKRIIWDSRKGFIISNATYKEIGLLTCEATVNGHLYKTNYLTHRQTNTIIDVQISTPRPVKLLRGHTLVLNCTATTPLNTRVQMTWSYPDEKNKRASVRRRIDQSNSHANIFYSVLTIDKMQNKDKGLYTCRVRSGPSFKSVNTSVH

[8] = target: KDR receptor (Homo sapiens, UniProt P35968); test: KDR receptor binding ELISA (inhibition of biotinylated native VEGF (8–109) binding); settings: second figure of the cell, variant midpoint concentration divided by that of native VEGF
Experimental: as §1
as §2, with “3′, 5,5′-tetramethyl” for “3', 5,5'-tetramethyl”
as §3

[9] = target: gD-KDR receptor on CHO cells (UniProt P35968 20-1356); test: cell-based or functional assay

T2 sequence (P17948 27-758 limits assumed): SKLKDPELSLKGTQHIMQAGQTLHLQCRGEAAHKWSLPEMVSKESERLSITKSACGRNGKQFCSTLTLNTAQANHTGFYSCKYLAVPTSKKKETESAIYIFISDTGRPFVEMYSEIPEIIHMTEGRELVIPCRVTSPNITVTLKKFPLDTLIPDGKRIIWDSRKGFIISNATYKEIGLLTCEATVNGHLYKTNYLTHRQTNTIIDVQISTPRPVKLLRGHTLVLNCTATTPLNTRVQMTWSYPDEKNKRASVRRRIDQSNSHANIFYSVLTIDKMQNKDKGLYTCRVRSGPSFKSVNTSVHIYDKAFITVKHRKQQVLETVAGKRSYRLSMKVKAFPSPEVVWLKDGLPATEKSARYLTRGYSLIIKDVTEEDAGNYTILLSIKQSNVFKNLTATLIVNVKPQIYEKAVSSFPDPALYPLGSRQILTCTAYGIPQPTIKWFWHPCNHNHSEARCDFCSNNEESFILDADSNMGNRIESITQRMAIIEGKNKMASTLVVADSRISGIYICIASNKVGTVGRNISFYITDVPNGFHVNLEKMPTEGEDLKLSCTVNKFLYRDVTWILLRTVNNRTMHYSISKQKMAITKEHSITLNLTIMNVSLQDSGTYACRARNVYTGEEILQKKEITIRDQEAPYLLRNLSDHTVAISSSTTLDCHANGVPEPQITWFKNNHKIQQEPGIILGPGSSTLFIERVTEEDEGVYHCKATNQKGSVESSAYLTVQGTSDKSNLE
KDR receptor on HUVEC cells, sequence (P35968 20-1356): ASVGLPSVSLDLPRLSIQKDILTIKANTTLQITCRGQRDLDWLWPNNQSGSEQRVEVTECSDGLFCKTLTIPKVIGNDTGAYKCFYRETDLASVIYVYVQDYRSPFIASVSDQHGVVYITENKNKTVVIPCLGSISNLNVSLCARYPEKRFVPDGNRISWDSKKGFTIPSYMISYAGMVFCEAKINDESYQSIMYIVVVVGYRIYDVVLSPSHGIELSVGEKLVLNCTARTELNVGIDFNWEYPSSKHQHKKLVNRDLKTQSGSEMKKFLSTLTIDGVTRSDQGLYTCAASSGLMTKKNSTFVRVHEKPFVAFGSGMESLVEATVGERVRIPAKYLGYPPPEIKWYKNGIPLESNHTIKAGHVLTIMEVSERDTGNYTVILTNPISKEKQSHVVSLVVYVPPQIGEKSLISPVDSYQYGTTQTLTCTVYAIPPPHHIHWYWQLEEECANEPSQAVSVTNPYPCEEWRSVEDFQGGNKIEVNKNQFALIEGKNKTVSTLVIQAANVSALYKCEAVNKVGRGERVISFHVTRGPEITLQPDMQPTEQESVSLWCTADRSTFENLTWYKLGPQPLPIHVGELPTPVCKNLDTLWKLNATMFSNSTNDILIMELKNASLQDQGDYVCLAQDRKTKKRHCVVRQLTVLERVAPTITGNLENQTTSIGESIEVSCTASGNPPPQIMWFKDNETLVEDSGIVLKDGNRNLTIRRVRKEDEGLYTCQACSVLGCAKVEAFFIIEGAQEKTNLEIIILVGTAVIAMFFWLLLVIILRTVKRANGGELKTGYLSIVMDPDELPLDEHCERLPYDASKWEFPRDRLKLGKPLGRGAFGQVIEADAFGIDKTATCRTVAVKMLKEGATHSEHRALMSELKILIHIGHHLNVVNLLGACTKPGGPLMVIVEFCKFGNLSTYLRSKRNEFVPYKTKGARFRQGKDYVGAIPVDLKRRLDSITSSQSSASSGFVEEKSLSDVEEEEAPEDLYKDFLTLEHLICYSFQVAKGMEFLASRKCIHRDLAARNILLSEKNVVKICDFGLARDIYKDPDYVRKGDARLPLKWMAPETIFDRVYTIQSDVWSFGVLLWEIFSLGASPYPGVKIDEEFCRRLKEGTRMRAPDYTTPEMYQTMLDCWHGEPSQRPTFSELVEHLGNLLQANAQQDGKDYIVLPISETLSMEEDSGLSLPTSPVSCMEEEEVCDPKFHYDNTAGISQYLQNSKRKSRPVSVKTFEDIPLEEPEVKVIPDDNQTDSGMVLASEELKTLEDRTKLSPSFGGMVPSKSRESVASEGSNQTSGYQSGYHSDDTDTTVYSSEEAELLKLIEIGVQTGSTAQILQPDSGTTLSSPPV
KDR receptor, sequence (P35968 20-327 limits assumed): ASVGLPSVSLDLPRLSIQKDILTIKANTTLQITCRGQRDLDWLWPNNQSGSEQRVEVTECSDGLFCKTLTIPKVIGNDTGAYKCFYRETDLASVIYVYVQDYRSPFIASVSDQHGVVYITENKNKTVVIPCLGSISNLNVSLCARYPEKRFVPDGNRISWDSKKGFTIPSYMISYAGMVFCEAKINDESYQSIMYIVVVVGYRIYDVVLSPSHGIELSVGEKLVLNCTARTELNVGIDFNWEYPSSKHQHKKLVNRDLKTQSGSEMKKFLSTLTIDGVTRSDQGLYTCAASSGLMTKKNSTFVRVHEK
T1 sequence (P35968 20-327 limits assumed): as above

Molecule	Endothelial Cell Proliferation Activity (HUVEC, 3H-thymidine) [4]	relative binding affinity (ratio to native VEGF (8-109)) [5] [ratio]	relative binding affinity (ratio to native VEGF (8-109)) [6] [ratio]	Relative Binding Affinity, FLT-1 Receptor: ratio to native VEGF (8–109) [7]	Relative Binding Affinity, KDR Receptor: ratio to native VEGF (8–109) [8]	other results
Native VEGF 165: 165-amino acid native vascular endothelial cell growth factor [reference compound]	–	–	–	–	–	Kd ([1]; Table 6, read-out: Binding affinity, FLT-1 Receptor (RIA), value in parentheses): 0.037 nM; PLC-gamma phosphorylation [2]: able to stimulate PLC-gamma phosphorylation to a similar extent
Native VEGF (8–109): truncated native VEGF comprising amino acids 8 to 109 of the 165-amino acid vascular endothelial cell growth factor [reference compound]	–	–	–	–	–	Kd ([1]; Example 8, FIG. 8B, read-out: affinity for Flt-1 (RIA)): 0.4 nM
O=c1cc(N2CCOCC2)oc2c(-c3ccccc3)cccc12 [LY 294002, reference compound]	–	–	–	–	–	inhibition of HUVEC cell migration [3]: 56%
B1	0.5 nM	0.5	> 21000	/>21000	0.5 nM/0.5	Endothelial Cell Proliferation Activity (HUVEC, 3H-thymidine) (ratio to native VEGF (8-109)) [4]: 1; Relative Binding Affinity, FLT-1 Receptor: concentration at midpoint absorbance [7]: beyond the sensitivity of the ELISA assay
B2	0.5 nM	–	–	–	–	IC50 [6]: 0.42 nM; Phosphorylation-Inducing Activity (KIRA assay) [9]: 2 nM
B3	–	1	400	–	–	Phosphorylation-Inducing Activity (KIRA assay) [9]: 1 ratio to native VEGF (8-109)
B4	1 ratio to native VEGF (8-109)	1	> 15000	/>15000	1 nM/1	Relative Binding Affinity, FLT-1 Receptor: concentration at midpoint absorbance [7]: beyond the sensitivity of the ELISA assay
B5	–	0.5	300	/300	0.5 nM/0.5	–
